{"source": "paper PMC5570900", "about": "“Exploiting a novel conformational switch to control innate immunity mediated by complement protein C3a” (Nature Communications, 2017)", "key": {"Rat plasma stability": {"assay": "Rat plasma stability", "format": "in vitro ADME", "conditions": "37 °C", "description": "(§1) For plasma stability studies, C3a and experimental compounds (10 μL, 1 mM in DMSO) were added to neat rat plasma (190 μL) and heated to 37 °C in a circulating water bath. Aliquots (20 µL) were collected at time points (0, 2, 5 and 10 min for C3a; 0, 5, 15, 30, 60, 120 and 240 min for other test compounds) and added directly to MeCN/H2O (80 µL, 9:1). The samples were centrifuged at 13,000 g for 3 min before supernatants were isolated and analyzed for test compound degradation via LC-MS. For liver microsomal stability studies, commercially available rat liver microsomes from Life Technologies, GIBCO were used. In brief, microsomes stored at −80 °C were slowly defrosted on ice. Test compounds (183 μL, 1 μM in 100 mM phosphate buffer pH 7.4 containing 0.1 % DMSO) were added to microsomes (5 μL) and NADPH (2 µL, 20 mM). Test solutions were heated in a circulating water bath at 37 °C for 5 min before additional cofactor NADPH (10 μL, 20 mM) was added. Aliquots (20 μL) were taken at time points (0, 5, 15, 30 and 60 min from the second addition of NADPH). Aliquots were added to MeCN/H2O (80 μL, 9:1) and centrifuged at 13,000 g for 3 min. Supernatants were analyzed for test compound degradation by LC-MSMS. Concentrations were plotted as a function of time on a semi-logarithmic graph. Rat plasma and microsomal activity was confirmed by rapid degradation of SLIGRL-NH2 (t1/2 < 5 min) in a parallel experiment."}, "[1]": {"assay": "Rat liver microsomal stability", "format": "in vitro ADME", "conditions": "rat, liver microsomes, pH 7.4; parallel control experiment, 37 °C; read-out: t1/2 in rat liver microsomes", "description": "as §1"}, "C5aR": {"target": "T1, C5aR (Homo sapiens, UniProt P21730)", "T1 construct": "endogenous in cells; host or cells: primary human monocyte-derived macrophages (HMDMs)", "T1 sequence (P21730 1-350)": "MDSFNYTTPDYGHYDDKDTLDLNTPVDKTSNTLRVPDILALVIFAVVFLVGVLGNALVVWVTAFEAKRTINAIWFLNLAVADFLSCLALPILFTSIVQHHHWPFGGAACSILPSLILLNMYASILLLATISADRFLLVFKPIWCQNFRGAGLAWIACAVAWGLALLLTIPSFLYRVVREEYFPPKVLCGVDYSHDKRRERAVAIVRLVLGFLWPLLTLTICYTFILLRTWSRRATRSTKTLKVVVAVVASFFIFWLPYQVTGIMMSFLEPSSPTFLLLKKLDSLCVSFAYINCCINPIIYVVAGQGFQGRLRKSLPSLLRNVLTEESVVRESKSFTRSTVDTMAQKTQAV", "assay": "[125I]-hC5a competition binding on HMDMs", "conditions": "[125I]-hC5a 25 pM", "description": "Receptor binding was performed by ligand competition with labelled 80 pM [^125I]-C3a or 25 pM [^125I]-C5a (2200 Ci/mmol; Perkin Elmer, Torrance, CA, USA) on HMDMs (1.2 × 10^6 cells/ml). HMDMs were treated with [^125I]-C3a or [^125I]-C5a ± various concentrations of unlabelled C3a/C5a or experimental ligands were diluted with assay buffer (50 mM Tris, 3 mM MgCl2, 0.1 mM CaCl2, 0.5% (w/v) BSA, pH 7.4) for 60 min at room temperature. Unbound [^125I]-C3a or [^125I]-C5a was removed by filtration through glass microfibre filter GF/B (Whatman Iner. Ltd, England) and washed three times with cold buffer (50 mM Tris-HCl pH 7.4). Bound [^125I]-C3a or [^125I]-C5a were assessed by scintillation counting on Microbeta counter. Specific binding was defined as the difference between total binding and nonspecific binding as determined in the presence of 1 μM unlabelled C3a or C5a[4]."}, "[2]": {"tested_on": "wild-type human HEK293 cells (C3aR−/−)", "assay": "Intracellular Ca2+ release in wild-type HEK293 cells", "format": "cell-based"}, "C3aR [3]": {"target": "T2, C3aR (Homo sapiens, UniProt Q16581)", "T2 sequence (Q16581 1-482)": "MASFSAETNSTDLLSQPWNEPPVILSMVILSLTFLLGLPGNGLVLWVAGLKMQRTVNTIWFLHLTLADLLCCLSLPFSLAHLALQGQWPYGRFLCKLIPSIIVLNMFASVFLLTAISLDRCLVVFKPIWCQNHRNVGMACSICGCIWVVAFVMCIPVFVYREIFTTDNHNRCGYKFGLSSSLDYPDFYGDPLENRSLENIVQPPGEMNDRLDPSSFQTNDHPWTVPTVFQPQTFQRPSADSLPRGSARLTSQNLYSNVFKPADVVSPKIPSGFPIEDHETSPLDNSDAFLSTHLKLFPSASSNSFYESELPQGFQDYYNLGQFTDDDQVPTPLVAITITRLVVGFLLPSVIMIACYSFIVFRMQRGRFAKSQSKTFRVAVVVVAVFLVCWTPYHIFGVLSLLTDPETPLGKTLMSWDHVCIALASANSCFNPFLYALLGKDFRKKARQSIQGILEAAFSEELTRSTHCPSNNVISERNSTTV", "assay": "Histamine secretion in human LAD2 mast cells (agonist mode)", "format": "cell-based", "parameters": "Concentration-dependent histamine secretion in human LAD2 mast cells; endogenous in cells; host or cells: LAD2 human mast cells", "conditions": "compound alone, 30 min, n ≥ 3, ± SEM", "description": "LAD2 human mast cells (kindly provided by Dr Dean Metcalfe, National Institute of Allergy and Infectious Diseases, National Institute of Health) were cultured in StemPro®-34 Serum Free Media (Invitrogen, Australia) supplemented with StemPro®-34 nutrient, 100 U/mL penicillin, 100 μg/mL streptomycin, 2 mM GlutaMAX, and 100 ng/mL human stem cell factor (SCF). Cells were hemi-depleted weekly and were not allowed to grow beyond a density of 0.5 × 10^6/mL. This cell line was authenticated by expression of tryptase and histamine granules. For the histamine assay, 1 × 10^4 cells per well were seeded in StemPro®-34 SFM in 96-well plates for 30 min before any treatments. For agonist studies, the cells were treated with compounds prepared in media for 30 min. For antagonist studies, the cells were pre-treated with compounds prepared in SFM for 30 min before addition of C3aR agonists for another 30 min. Cells were centrifuged (500 g, 5 min, 4 °C) and cell-free supernatants were collected for measuring histamine. Histamine content was measured using the histamine EIA kit according to the manufacturer’s instructions (Abnova, Taiwan). The readings were recorded on a FLUOstar Optima (BMG LabTechnologies, Offenburg, Germany)."}, "C3aR [4]": {"target": "T2, C3aR", "assay": "Intracellular Ca2+ release in human monocyte-derived macrophages (agonist mode)", "format": "cell-based", "parameters": "Concentration-dependent Ca^2+ release in human monocyte-derived macrophages (HMDMs); endogenous in cells; host or cells: primary human monocyte-derived macrophages (HMDMs)", "conditions": "HMDMs, n ≥ 3, ± SEM", "description": "HMDMs were isolated using Ficoll-paque density centrifugation (GE Healthcare Bio-Science, Uppsala, Sweden) from buffy coat (of anonymous human donors) provided by the Australian Red Cross Blood Service, Brisbane. CD14^+ monocytes were positively selected using CD14 MicroBeads (Miltenyi Biotech, Auburn, USA)[40], [41]. CD14^+ monocytes were differentiated to HMDMs using 100 ng/mL of recombinant human macrophage colony-stimulating factor (PeptroTech, Rocky Hill, USA) for 7 days in Iscove’s modified Dulbecco’s media supplemented with 10% fetal bovine serum, penicillin (100 U/mL), streptomycin (100 µg/mL) and L-glutamine (2 mM). HMDMs were supplemented after 5 days with fresh medium containing 10 ng/ml macrophage colony-stimulating factor and collected by gentle scraping on day 7.\nHMDMs were seeded to a 96-well clear-bottom black-wall assay plate at a density of 5 × 10^4 cells per well and allowed to adhere overnight. Prior to assay, cells were incubated with dye-loading buffer (Hank’s balance salt solution (HBSS) buffer, 4 μM Fluo-3 AM, 25 μl Pluronic acid F-127 and 1% fetal bovine serum) for 1 h at 37 °C. Cells were then washed once with assay buffer (HBSS supplemented with 2.5 mM probenecid and 20 mM HEPES, pH 7.4). Intracellular calcium release was monitored using a fluorescence imaging plate reader (excitation 495 nm, emission 520 nm). The percentage responses were plotted against logarithmic concentrations of each test compound[42]."}, "C3aR [5]": {"target": "T2, C3aR", "assay": "Intracellular Ca2+ release in HEK293 cells transfected with C3aR", "format": "cell-based", "parameters": "Concentration-dependent Ca^2+ release in human monocyte-derived macrophages (HMDMs); endogenous in cells; host or cells: primary human monocyte-derived macrophages (HMDMs)", "conditions": "HEK293 cells transfected with C3aR (C3aR+/+), compound alone"}}}
{"substance": "H-SLIGRL-NH2 [SLIGRL-NH2, reference compound]", "values": [{"measurement": "half-life at 50 µM", "setting": "Rat plasma stability; rat, plasma (neat), parallel control experiment, read-out: t1/2 in rat plasma", "value": "< 5", "unit": "min"}, {"measurement": "half-life at 0.915 µM", "setting": "[1]", "value": "< 5", "unit": "min"}]}
{"substance": "hC3a: human complement protein C3a, 77 residue ~9 kDa helix bundle inflammatory protein", "values": [{"measurement": "C5aR binding by competition with [125I]-hC5a", "setting": "C5aR", "value": "no binding"}, {"measurement": "Intracellular Ca2+ release", "setting": "[2]", "value": "did not induce Ca^2+ release"}, {"measurement": "Stability in rat plasma", "setting": "Rat plasma stability; neat rat plasma, over 4 h (C3a up to 10 min)", "value": "degraded within minutes"}, {"measurement": "EC50", "setting": "C3aR [3]", "value": "3 ± 1.5", "unit": "nM"}, {"measurement": "EC50", "setting": "C3aR [4]", "value": "8 ± 2", "unit": "nM"}, {"measurement": "Intracellular Ca2+ release", "setting": "C3aR [5]", "value": "did induce Ca^2+ release"}]}
